This assay has as its target integrin α5β1 headpiece (α5 F1–L609/β1 Q1–E481) (UniProt P05556). Put plainly: fluorescence polarisation. (In general: Polarisation of emitted light reports the rotation of a fluorescent probe.)

For the substance “fibronectin fragment Fn7–10 (P1142–T1509) (from UniProt P02751-1 1173-1540) (domain or fragment)”, the Kd – broadly, the constant that tells how readily two partners part at equilibrium – is 30 nM.
With “fibronectin fragment Fn9–10 (G1326–T1509) (from UniProt P02751-1 1357-1540) (domain or fragment)” the figure was 30 nM.

The values above are taken from publication PMC9483561.
